Values of other authors as cited in US12065466B2, “Methods and compositions for protein sequencing” (Quantum-Si Incorporated, priority 2020, dated 2024).

B1: PS536: UBR-box domain homolog, SEQ ID NO: 164 (protein, listed as Aphis gossypii)
chain: MVCGRVFKMGEPTYNCRECGMDSTCVLCVDCFKRSPHKNHKYKMGTSYGGGCCDCGDVEAWKHDPYCQTHKL
B2: PS516: UBR-box domain homolog, SEQ ID NO: 144 (protein)
chain: MLCGKVFKTGEPTYSCRDCANDPTCVLCIDCFQNGAHKNHRYKMNTSGGGGYCDCGDQEAWTSHPFCNLHSP
modifications: Crassostrea gigas
B3: PS543: UBR-box domain homolog, SEQ ID NO: 172 (protein, listed as Trichinella spiralis)
chain: MKCNRQLICGEPTYCCLDCACDQTCIFCHACFQSSEHKNHRYSMSTSEGSGTCDCGDKEAWKSNYYCLNHKP
B4: PS523: UBR-box domain homolog, SEQ ID NO: 151 (protein)
chain: MAKSHRHTGRNCGRAFQPGEPLYRCQECAYDDTCVLCISCFNPDDHVNHHVSTHICNELHDGICDCGDAEAWNVPLHCKAEED
modifications: Saccharomycetaceae sp. Ashbya aceri
B5: PS525: UBR-box domain homolog, SEQ ID NO: 153 (protein, listed as Mus musculus)
chain: MLCGKVFKSGETTYSCRDCAIDPTCVLCMDCFQSSVHKNHRYKMHTSTGGGFCDCGDTEAWKTGPFCVDHEP
B6: PS529: UBR-box domain homolog, SEQ ID NO: 157 (protein)
chain: MLCGKVFKGGETTYSCRDCAIDPTCVLCMDCFQNSIHKNHRYKMHTSTGGGFCDCGDTEAWKTGPLCANHEP
modifications: Chelonia mydas
B7: PS518: UBR-box domain homolog, SEQ ID NO: 146 (protein, listed as Nilaparvata lugens)
chain: MVCGRVFKMGEPSYHCRECGMDATCVLCVDCFKKSSHRNHKYKMGTSIGGGCCDCGDVEAWKTEPYCEVHIA
B8: PS530: UBR-box domain homolog, SEQ ID NO: 158 (protein, listed as Acropora millepora)
chain: MLCGKVFKVGEPTYSCRDCGYDNTCVLCINCFQKSIHKNHHYKMNTSGGGGVCDCGDVEAWKEGEACEIHQQ
B9: PS533: UBR-box domain homolog, SEQ ID NO: 161 (protein, listed as Contarinia nasturtii)
chain: MVCGRVFKMNEPFYSCRECGMDPTCVLCVNCFKQSAHRHHKYKMGTSAGGGCCDCGDNEAWKQDHYCDEHTK
B10: PS539: UBR-box domain homolog, SEQ ID NO: 168 (protein, listed as Kazachstania africana)
chain: MQTSFTHKGRNCGRKFKVGEPLYRCHECGFDDTCVLCIHCFNPADHENHHIYTDICNDFTSGICDCGDTEAWNGDLHCKAEEI
B11: PS514: UBR-box domain homolog, SEQ ID NO: 142 (protein, listed as Tribolium castaneum)
chain: MVCGRVFKLGEPTYSCRECGMDNTCVLCVNCFKNSEHRFHKYKMGTSQGGGCCDCGDVEAWKKAPFCDVHIA
B12: PS542: UBR-box domain homolog, SEQ ID NO: 171 (protein, listed as Trichuris suis)
chain: MRCNHVFANGEATYSCRGCAADPTCVLCASCFELSAHKEHKYMITTSSGTGYCDCGDPEAWKADPFCQQHQP
B13: PS534: UBR-box domain homolog, SEQ ID NO: 162 (protein)
chain: MKCGHIFRKGEVFYRCKTCSVDSNSALCVKCFRATSHKDHETSFTVSAGSGGCCDCGNAAAWIGDVSCKIHSH
modifications: Schizosaccharomyces pombe
B14: PS524: UBR-box domain homolog, SEQ ID NO: 152 (protein, listed as Drosophila ficusphila)
chain: MVCGKVFKNGEPTYSCRECGVDPTCVLCVNCFKRSAHRFHKYKMSTSGGGGCCDCGDDEAWKKDHYCQLHLA
B15: PS531: UBR-box domain homolog, SEQ ID NO: 159 (protein, listed as Musca domestica)
chain: MVCGKVFKIGEPTYSCRECGMDQTCVLCVNCFKQSAHRYHKYKMSTSGGGGCCDCGDEEAWKKDHYCEEHLR
B16: PS25: SEQ ID NO: 167 (protein, listed as Saccharomyces cerevisiae)
chain: MGSVHKHTGRNCGRKFKIGEPLYRCHECGCDDTCVLCIHCFNPKDHVNHHVCTDICTEFTSGICDCGDEEAWNSPLHCKAEEQ
B17: PS520: UBR-box domain homolog, SEQ ID NO: 148 (protein, listed as Monopterus albus)
chain: MLCGRVFKEGETVYSCRDCAIDPTCVLCMDCFQDSVHKSHRYKMHASSGGGFCDCGDVEAWKIGPCCSKHDP
B18: PS526: UBR-box domain homolog, SEQ ID NO: 154 (protein, listed as Maylandia zebra)
chain: MLCGRVFKEGETVYSCRDCAIDPTCVLCMDCFQDSVHKSHRYKMHASSGGGFCDCGDVEAWKIGPYCSKHDP
B19: PS521: UBR-box domain homolog, SEQ ID NO: 149 (protein)
chain: MLCGRVFRSGEPTYSCRDCAVDPTCVLCIDCFNNGAHRKHKYRMSTSSGGGYCDCGDKEAWKTDPLCEIHRK
modifications: Lingula anatine
B20: PS537: UBR-box domain homolog, SEQ ID NO: 165 (protein, listed as Aedes aegypti)
chain: MVCGRVFKIGEPTYSCRECSMDPTCVLCSSCFKKSSHRLHKYKMSTSGGGGCCDCGDHEAWKRDPSCEEHAV
B21: PS527: UBR-box domain homolog, SEQ ID NO: 155 (protein, listed as Mizuhopecten yessoensis)
chain: MLCGKVFKYGEPTYSCRDCANDPTCVLCIDCFQKSAHKKHRYKMSTSGGGGYCDCGDSEAWKTAPFCSNHKA
B22: Homo sapiens UBR2: SEQ ID NO: 174 (protein, listed as Homo sapiens)
chain: MGPLGSLCGRVFKVGEPTYSCRDCAVDPTCVLCMECFLGSIHRDHRYRMTTSGGGGFCDCGDTEAWKEGPYCQKHE
B23: PS615: UBR-box domain homolog, SEQ ID NO: 175 (protein, listed as Kluyveromyces marxianus)
chain: MVNEHRGSQCSKQCHGTETVYYCFDCTKNPLYEICEECFDETQHMGHRYTSRVVTRPEGKVCHCGDISGYNNPEKAFQCKI
B24: PS616: UBR-box domain homolog, SEQ ID NO: 176 (protein, listed as Kluyveromyces lactis)
chain: MHNDHRGSQCSKQCHGTETVYYCFDCTKNPLYEICEDCFDESQHIGHRYTSRVVTRPEGKVCHCGDISSYNDPKKAFQCRI
B25: PS544: UBR-box domain homolog, SEQ ID NO: 173 (protein, listed as Homo sapiens)
chain: MGPLGSLCGRVFKSGETTYSCRDCAIDPTCVLCMDCFQDSVHKNHRYKMHTSTGGGFCDCGDTEAWKTGPFCVNHEP
B26: PS540: UBR-box domain homolog, SEQ ID NO: 169 (protein, listed as Clathrospora elynae)
chain: MPCGHIFKNGEATYRCKTCTADDTCVLCARCFDASDHEGHQVFVSVSPGNSGCCDCGDDEAWVRPVHCNMHSA
B27: PS519: UBR-box domain homolog, SEQ ID NO: 147 (protein, listed as Manduca sexta)
chain: MLCGRVFKQGEPAYSCRECGMDNTCVLCVECFKVSAHRHHKYKMGQSGGGGCCDCGDTEAWKRDPFCELHAA
B28: PS541: UBR-box domain homolog, SEQ ID NO: 170 (protein)
chain: MRCGHIFRAGEATYRCITCAADDTCVLCSRCFDASDHTGHQYQISLSSGNCGCCDCGDEEAWRLPLFCAIHTD
modifications: Aspergillus neoniger
B29: PS532: UBR-box domain homolog, SEQ ID NO: 160 (protein, listed as Schizosaccharomyces cryophilus)
chain: MSCGRIFKKGEVFYRCKTCSVDSNSALCVKCFRATDHHGHETSFTISAGSGGCCDCGNSAAWIRDMPCKIHNR
B30: PS517: UBR-box domain homolog, SEQ ID NO: 145 (protein)
chain: MMCGRVFKMGEPTYSCRECGVDSTCVLCVGCFQQSAHRDHKYKMGTSGGGGCCDCGDTEAWKRDPFCEIHMV
modifications: Harpegnathos saltator
B31: PS515: UBR-box domain homolog, SEQ ID NO: 143 (protein, listed as Wasmannia auropunctata)
chain: MICGKMFKIGEPTYSCRECGMDSTCVLCVDCFKQSAHRNHKYKMGTSSGGGCCDCGDTEAWKKEPFCKTHVV

System: amino acid at a terminal position of a polypeptide
Conditions: Table 2; amino acid identity at a terminal position (phosphotyrosine also internal); inferred from literature and/or demonstrated by the inventors; cited from earlier work
For B1, the “Binding Pref.” value is listed as “K, R, H”.
For B2, the “Binding Pref.” value is listed as “K, R, H”.
For B3, the “Binding Pref.” value is listed as “K, R, H”.
In the case of B4, the “Binding Pref.” value is given as “K, R, H”.
For B5, the “Binding Pref.” value is listed as “K, R, H”.
For B6, the “Binding Pref.” value is given as “K, R, H”.
For B7, the “Binding Pref.” value is given as “K, R, H”.
In the case of B8, the “Binding Pref.” value is listed as “K, R, H”.
In the case of B9, the “Binding Pref.” value is listed as “K, R, H”.
For B10, the “Binding Pref.” value is listed as “K, R, H”.
For B11, the “Binding Pref.” value is listed as “K, R, H”.
In the case of B12, the “Binding Pref.” value is listed as “K, R, H”.
For B13, the “Binding Pref.” value is listed as “K, R, H”.
For B14, the “Binding Pref.” value is given as “K, R, H”.
For B15, the “Binding Pref.” value is given as “K, R, H”.
In the case of B16, the “Binding Pref.” value is given as “K, R, H”.
In the case of B17, the “Binding Pref.” value is listed as “K, R, H”.
For B18, the “Binding Pref.” value is listed as “K, R, H”.
In the case of B19, the “Binding Pref.” value is listed as “K, R, H”.
In the case of B20, the “Binding Pref.” value is given as “K, R, H”.
For B21, the “Binding Pref.” value is listed as “K, R, H”.
For B22, the “Binding Pref.” value is given as “K, R, H”.
In the case of B23, the “Binding Pref.” value is given as “K, R, H”.
For B24, the “Binding Pref.” value is given as “K, R, H”.
In the case of B25, the “Binding Pref.” value is given as “K, R, H”.
For B26, the “Binding Pref.” value is given as “K, R, H”.
For B27, the “Binding Pref.” value is listed as “K, R, H”.
In the case of B28, the “Binding Pref.” value is listed as “K, R, H”.
In the case of B29, the “Binding Pref.” value is given as “K, R, H”.
For B30, the “Binding Pref.” value is given as “K, R, H”.
For B31, the “Binding Pref.” value is given as “K, R, H”.
